Measured values taken from patent US10059950B2, “Compositions comprising an internalizing nucleic acid molecule, and their methods of use” (B3 BIO, INC., priority 2012, dated 2018).
In the oligonucleotide strings, read from the 5' end, every base follows the letter of its sugar. An asterisk marks phosphorothioate; unmarked linkages are phosphodiester. Other units and linkages are bracketed, terminal groups are in braces. A string of capitals states the bases alone. r = 2'-OH (RNA); f = 2'-fluoro

Legend:
[1] = test system: T47D human ductal breast epithelial tumor cell line; test: Flow cytometric binding and internalization assay, T47D; assay type: cell-based; settings: malignant
Protocol: (§1) In illustrating a screening process for internalization, from clones selected for further analysis from the selection process, a flow cytometric-based assay for binding and/or internalization was utilized. Typically, the assay was performed by incubating 200 nM of each clone with 5×10^5 target cells in 100 ul PBS containing 0.5% bovine serum albumin (BSA) in a 13 mm tube for 2 hours @ 37° C. A first portion of the cells was then treated with RNAse to remove any of the clone remaining bound to the surface of the cells, so as to allow detection and quantitation of internalized clone (i.e., measuring internalization). In parallel, a second portion of the cells was treated with PBS containing 0.5% BSA (lacking added RNase activity to enzymatically cleave […]), so as to allow detection and quantitation of clone remaining bound to the cell surface, as well as internalized clone (i.e., measuring binding and internalization). […] Additionally, fluorescence of unstained cells was measured, as a control, to quantitate any background fluorescent properties of the cells themselves as encountered in analyses by flow cytometry (“Unstained”), as opposed to fluorescent signal mediated by the RNA molecules further modified to include Alexa 647. […] The units of fluorescence in Table 5 represent mean fluorescence (“Mean”). […]

[2] = test system: PBMC (unstim) human, unstimulated peripheral blood mononuclear cells; test: Flow cytometric binding and internalization assay, PBMC; assay type: cell-based; settings: nonmalignant
Protocol: as §1

[3] = test system: human prostate cancer cell line PC-3; test: Flow cytometric-based screening assay for internalization in PC-3 cells; assay type: cell-based
Protocol: In illustrating a screening process for internalization, from clones selected for further analysis from the selection process, a flow cytometric-based assay for binding and/or internalization was utilized. Typically, the assay was performed by incubating 200 nM of each clone with 5×10^5 target cells in 100 ul PBS containing 0.5% bovine serum albumin (BSA) in a 13 mm tube for 2 hours @ 37° C. A first portion of the cells was then treated with RNAse to remove any of the clone remaining bound to the surface of the cells, so as to allow detection and quantitation of internalized clone (i.e., measuring internalization). In parallel, a second portion of the cells was treated with PBS containing 0.5% BSA (lacking added RNase activity to enzymatically cleave […]), so as to allow detection and quantitation of clone remaining bound to the cell surface, as well as internalized clone (i.e., measuring binding and internalization). Following further washes with phosphate-buffered saline, the cells were fixed in 1% formaldehyde and then subjected to analysis on a flow cytometer using commercially available analysis software. In performing analyses by flow cytometry, several assay controls were used. As an assay control representing either no or background (e.g., non-specific) internalization, an RNA molecule resulting from a selection process for binding a molecule not detectably expressed on target cells was used. The assay control RNA molecule was further modified with Alexa 647, and then used for further characterization of clones from the selection process described herein. For ease of description and reference for this Example, this assay control RNA molecule is referred to herein as Negative Control 1 (see, e.g., Table 5). As an additional assay control that represents either no or background internalization, used was an RNA molecule from the starting library which was chosen from the library prior to beginning a selection method described herein, and that was further modified with Alexa 647. This assay control RNA molecule is referred to herein as Negative Control 2 (see, e.g., Tables 5, 7, and 8). Additionally, fluorescence of unstained cells was measured, as a control, to quantitate any background fluorescent properties of the cells themselves as encountered in analyses by flow cytometry (“Unstained”), as opposed to fluorescent signal mediated by the RNA molecules further modified to include Alexa 647. Shown in Table 5 are the results of analyses by flow cytometry in which measured and quantitated was the ability of clones, selected on the basis of sequence convergence, to internalize into target cells represented by human prostate cancer cell line PC-3. The units of fluorescence in Table 5 represent mean fluorescence (“Mean”). The fold increase (determined by dividing the mean fluorescence of a clone by the mean fluorescence of unstained cells) is an indicator of the ability of a clone, or a clone which has been further modified to include an effector moiety, to internalize into the target cells (Table 5; “Fold Increase”).
The truncations, illustrated in Table 6, were each further modified with a detectable moiety, Alexa 647, and analyzed by a flow cytometric-based screening assay for internalization using the methods outlined in Example 2, to determine minimal sequences that maintain the full ability to internalize into human prostate cancer cells. Shown in Table 7 are the results of analyses by flow cytometry in which measured and quantitated was the ability of each truncation to internalize into target cells represented by human prostate cancer cell line PC-3. The units of fluorescence in Table 7 represent mean fluorescence intensity (“Mean”). […]

[4] = test system: A431 human epidermoid carcinoma; test: Flow cytometric binding and internalization assay, A431; assay type: cell-based; settings: A431, malignant
Protocol: as §1

[5] = test system: WIL-2 B lymphoblastoid cell line transformed with Epstein Barr virus; test: Flow cytometric binding and internalization assay, WIL-2; assay type: cell-based, human; settings: WIL-2, transformed cells
Protocol: as §1

[6] = test system: K562 human chronic myelogenous leukemia; test: Flow cytometric binding and internalization assay, K562; assay type: cell-based; settings: K562, malignant
Protocol: as §1

[7] = test system: human primary mammary epithelial cells; test: Flow cytometric binding and internalization assay, mammary epithelial cells; assay type: cell-based; settings: nonmalignant
Protocol: as §1

[8] = test system: 22Rv1 Human prostate xenografts in mice; test: Flow cytometric binding and internalization assay, 22Rv1; assay type: cell-based; settings: 22Rv1, malignant
Protocol: as §1

[9] = test system: DU145 human prostate cancer, metastatic; test: Flow cytometric binding and internalization assay, DU145; assay type: cell-based; settings: DU145, malignant
Protocol: as §1

[10] = test system: MCF7 human breast adenocarcinoma; test: Flow cytometric binding and internalization assay, MCF7; assay type: cell-based; settings: MCF7, malignant
Protocol: as §1

[11] = test system: A549 human lung adenocarcinoma; test: Flow cytometric binding and internalization assay, A549; assay type: cell-based; settings: A549, malignant
Protocol: as §1

[12] = test system: HCC1937 human, triple negative, primary breast carcinoma; test: Flow cytometric binding and internalization assay, HCC1937; assay type: cell-based; settings: HCC1937, malignant
Protocol: as §1

[13] = test system: HCC1143 human, triple negative, breast carcinoma; test: Flow cytometric binding and internalization assay, HCC1143; assay type: cell-based; settings: HCC1143, malignant
Protocol: as §1

[14] = test system: SKBR3 human breast adenocarcinoma; test: Flow cytometric binding and internalization assay, SKBR3; assay type: cell-based; settings: SKBR3, malignant
Protocol: as §1

[15] = test system: LNCaP lymph node metastatic lesion of human prostate adenocarcinoma; test: Flow cytometric binding and internalization assay, LNCaP; assay type: cell-based; settings: malignant
Protocol: as §1

[16] = test system: HS578T Human, triple negative, highly metastatic breast carcinoma; test: Flow cytometric binding and internalization assay, HS578T; assay type: cell-based; settings: malignant
Protocol: as §1

[17] = test system: PrEC human primary prostate epithelial cells; test: Flow cytometric binding and internalization assay, PrEC; assay type: cell-based; settings: nonmalignant
Protocol: as §1

[18] = Table 7, truncations modified with Alexa 647, PC-3

B1: GGGAGGACGAUGCGGUACUUUCGGGCUUUCGGCAACAUCAGCCCCUCAGGACGCAAUUUCUCCUACUGGGAUAGGUGGAUUAU (nucleic acid)
chain: rGrGrGrArGrGrAfCrGrAfUrGfCrGrGfUrAfCfUfUfUfCrGrGrGfCfUfUfUfCrGrGfCrArAfCrAfUfCrArGfCfCfCfCfUfCrArGrGrAfCrGfCrArAfUfUfUfCfUfCfCfUrAfCfUrGrGrGrAfUrArGrGfUrGrGrAfUfUrAfU
modifications: Alexa 647 label via hybridized DNA oligo, further chemistry not fully specified
notes: tested hybridized to Alexa647 DNA oligo
B1 was tested, and the Fold increase [1] was 25.8, the Fold increase [2] was 2.4 and the “internalization into cells (conclusion from Table 5)” value ([3]; PC-3, in words) was “mediate internalization into cells”. The “Fold Increase (mean fluorescence of clone / unstained cells)” value ([3]; Table 5, 200 nM Alexa 647-modified clone, 2 hours @ 37° C., PC-3) was 8.3, the “Mean (mean fluorescence)” value ([3]; Table 5, 200 nM Alexa 647-modified clone, 2 hours @ 37° C., flow cytometry, PC-3) was 665 and the “Fold increase (mean fluorescence intensity / unstained cells)” value [3, 18] was 11.3. For the same molecule, the “Mean (mean fluorescence intensity)” value [3, 18] was 907, the Fold increase ([3]; Table 9, PC3, malignant) was 9.4 and the Fold increase [4] was 6.9. It also gave a Fold increase [5] of 20.6, a Fold increase [6] of 23.2 and a Fold increase [7] of 5.7. For the same molecule, the Fold increase [8] was 14.8, the Fold increase [9] was 6.1 and the Fold increase [10] was 31.0. The Fold increase [11] was 3.7, the Fold increase [12] was 11.8 and the Fold increase [13] was 2.1. It also gave a Fold increase [14] of 14.3, a Fold increase [15] of 6.1 and a Fold increase [16] of 9.8. The Fold increase [17] was 2.6.
